{"source": "paper PMC4005645", "about": "“Molecular basis for the wide range of affinity found in Csr/Rsm protein–RNA recognition”", "key": {"RsmE [1]": {"molecular_target": "T1, RsmE (Pseudomonas fluorescens CHA0, UniProt P0DPC3 1-64)", "T1 sequence": "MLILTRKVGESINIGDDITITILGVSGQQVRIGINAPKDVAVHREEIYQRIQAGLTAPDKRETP", "assay": "NMR structure; slow exchange; ITC: 300 mM NaCl, 50 mM potassium phosphate pH 8.0, 298 K; NMR: 30 mM NaCl, 50 mM potassium phosphate pH 7.2, 313 K", "details": "protein: recombinant; tags: C-terminal His tag; chain copies: 2; hairpin"}, "RsmE [2]": {"molecular_target": "T1, RsmE", "assay": "ITC; second RNA on dimer, two-site fit; ITC: 300 mM NaCl, 50 mM potassium phosphate pH 8.0, 298 K; NMR: 30 mM NaCl, 50 mM potassium phosphate pH 7.2, 313 K", "details": "protein: recombinant; tags: C-terminal His tag; chain copies: 2; hairpin"}, "RsmE [3]": {"molecular_target": "T1, RsmE", "assay": "ITC; first RNA on dimer, two-site fit; ITC: 300 mM NaCl, 50 mM potassium phosphate pH 8.0, 298 K; NMR: 30 mM NaCl, 50 mM potassium phosphate pH 7.2, 313 K", "details": "protein: recombinant; tags: C-terminal His tag; chain copies: 2; hairpin"}, "RsmE [4]": {"molecular_target": "T1, RsmE", "assay": "ITC; two-site fit, high affinity, similar to SL2; values in figure; ITC: 300 mM NaCl, 50 mM potassium phosphate pH 8.0, 298 K; NMR: 30 mM NaCl, 50 mM potassium phosphate pH 7.2, 313 K", "details": "protein: recombinant; tags: C-terminal His tag; chain copies: 2; hairpin"}, "RsmE [5]": {"molecular_target": "T1, RsmE", "assay": "ITC; intermediate affinity; value in figure; ITC: 300 mM NaCl, 50 mM potassium phosphate pH 8.0, 298 K; NMR: 30 mM NaCl, 50 mM potassium phosphate pH 7.2, 313 K", "details": "protein: recombinant; tags: C-terminal His tag; chain copies: 2"}}}
{"binder": "GGGUGUCGACGGAUAGACACCC (structured_RNA)", "note": "[RsmZ SL1]", "values": [{"measurement": "binding result", "setting": "RsmE [1]", "value": "binds"}]}
{"binder": "GGGCCAUCAAGGACGAUGGUCC (structured_RNA)", "note": "[RsmZ SL2]", "values": [{"measurement": "Kd", "setting": "RsmE [2]", "value": "185 ± 3", "unit": "nM"}, {"measurement": "Kd", "setting": "RsmE [3]", "value": "16 ± 3", "unit": "nM"}]}
{"binder": "GGGUCAUCAGGACGAUGACCC (structured_RNA)", "note": "[RsmZ SL4]", "values": [{"measurement": "binding result", "setting": "RsmE [1]", "value": "binds"}]}
{"binder": "GGGCUUCACGGAUGAAGCCC (structured_RNA)", "note": "[20nt-RBS (hcnA GGA#5)]", "values": [{"measurement": "binding result", "setting": "RsmE [4]", "value": "binds"}]}
{"binder": "GAGCAUGGACGGCGAGACGCCGGGUA (structured_RNA)", "note": "[hcnA-GGA#3]", "values": [{"measurement": "binding result", "setting": "RsmE [5]", "value": "binds"}]}
{"binder": "GGGAUCGCAGGAAGCGAUCCC (structured_RNA)", "note": "[RsmZ SL3]", "values": [{"measurement": "binding result", "setting": "RsmE [1]", "value": "binds"}]}
